Test results from the supplement of paper PMC9112550, “Optimization of the antimicrobial peptide Bac7 by deep mutational scanning” (BMC Biology, 2022).

Test system: Escherichia coli TOP10
Experiment: shrunken log2 fold change of peptide-encoding DNA abundance (4.5 h post-induction vs induction); higher = less antimicrobial activity (less host growth inhibition)
Conditions: time post-induction: 4.5 h; library: site-saturation at positions 5, 18, 19, 20
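Further: peptides expressed intracellularly from a pBAD plasmid library in pooled LB shake-flask culture, induced with 0.3% L-arabinose, DNA abundance read by NGS, three biological replicates, DESeq2 with apeglm shrinkage.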

Sequence | shrunken log2 fold change
RRIRSRPPRLPRPRPRPCECPRP | -0.0304
RRIRRRPPRLPRPRPRPCDVPRP | -0.0838
RRIRNRPPRLPRPRPRPTPSPRP | 0.338
RRIRSRPPRLPRPRPRPTLHPRP | 0.147
RRIRNRPPRLPRPRPRPIMEPRP | -0.139
RRIRDRPPRLPRPRPRPERNPRP | 0.278
RRIRRRPPRLPRPRPRPFVQPRP | -0.0288
RRIRMRPPRLPRPRPRPKDDPRP | 2.12
RRIRYRPPRLPRPRPRPATGPRP | 0.337
RRIRSRPPRLPRPRPRPAKEPRP | 0.0106
RRIRGRPPRLPRPRPRPFPQPRP | 0.717
RRIRGRPPRLPRPRPRPKGKPRP | 1.16
RRIRPRPPRLPRPRPRPDTWPRP | 0.0185
RRIRERPPRLPRPRPRPVNIPRP | -0.0402
RRIRWRPPRLPRPRPRPVKTPRP | 0.00121
RRIRARPPRLPRPRPRPIQPPRP | -0.0587
RRIRYRPPRLPRPRPRPVEPPRP | -0.384
RRIRPRPPRLPRPRPRPTIIPRP | -0.65
RRIRNRPPRLPRPRPRPHVDPRP | 0.00884
RRIRARPPRLPRPRPRPWLHPRP | 0.144
RRIRKRPPRLPRPRPRPTFGPRP | 0.0674
RRIRFRPPRLPRPRPRPRSKPRP | 0.0303
RRIRNRPPRLPRPRPRPHASPRP | 0.065
RRIRYRPPRLPRPRPRPEGTPRP | -0.0176
RRIRLRPPRLPRPRPRPGGGPRP | 0.849

Sequence | shrunken log2 fold change
RRIRDRPPRLPRPRPRPYCIPRP | -0.205
RRIRNRPPRLPRPRPRPLDKPRP | -0.186
RRIRHRPPRLPRPRPRPTVQPRP | 0.118
RRIRYRPPRLPRPRPRPCWVPRP | -0.158
RRIRFRPPRLPRPRPRPEQEPRP | -0.159
RRIRKRPPRLPRPRPRPEWMPRP | -0.0537
RRIRSRPPRLPRPRPRPPYVPRP | -0.215
RRIRDRPPRLPRPRPRPPMGPRP | 0.283
RRIRPRPPRLPRPRPRPFRLPRP | -0.465
RRIRQRPPRLPRPRPRPRGHPRP | 0.342
RRIRWRPPRLPRPRPRPDNKPRP | -0.571
RRIRDRPPRLPRPRPRPHCDPRP | -0.0666
RRIRVRPPRLPRPRPRPVRNPRP | 0.105
RRIRTRPPRLPRPRPRPEWQPRP | 0.495
RRIRCRPPRLPRPRPRPARYPRP | -0.438
RRIRERPPRLPRPRPRPEPQPRP | 0.519
RRIRKRPPRLPRPRPRPYREPRP | -0.0243
RRIRSRPPRLPRPRPRPTEVPRP | -0.125
RRIRQRPPRLPRPRPRPQDFPRP | -0.372
RRIRCRPPRLPRPRPRPDTGPRP | -0.879
RRIRWRPPRLPRPRPRPRPNPRP | 0.273
RRIRYRPPRLPRPRPRPVDEPRP | -0.554
RRIRNRPPRLPRPRPRPAQAPRP | -0.0253
RRIRWRPPRLPRPRPRPATDPRP | 0.258
RRIRLRPPRLPRPRPRPEAIPRP | 0.0246

Sequence | shrunken log2 fold change
RRIRFRPPRLPRPRPRPFQAPRP | -0.91
RRIRQRPPRLPRPRPRPFTVPRP | -0.0315
RRIRLRPPRLPRPRPRPQAYPRP | -0.126
RRIRARPPRLPRPRPRPVFRPRP | 0.143
RRIRLRPPRLPRPRPRPAGWPRP | 0.712
RRIRSRPPRLPRPRPRPMRKPRP | 0.853
RRIRTRPPRLPRPRPRPMFDPRP | -0.0585
RRIRCRPPRLPRPRPRPKCDPRP | -0.135
RRIRHRPPRLPRPRPRPHQTPRP | -0.0667
RRIRIRPPRLPRPRPRPDNFPRP | -0.0215
RRIRSRPPRLPRPRPRPTYNPRP | -0.765
RRIRLRPPRLPRPRPRPTTHPRP | -0.102
RRIRTRPPRLPRPRPRPKRFPRP | -0.00233
RRIRPRPPRLPRPRPRPKTKPRP | 0.00358
RRIRGRPPRLPRPRPRPFHCPRP | -0.36
RRIRARPPRLPRPRPRPRRIPRP | -0.0273
RRIRMRPPRLPRPRPRPRVMPRP | 0.832
RRIRERPPRLPRPRPRPGVIPRP | -0.0985
RRIRRRPPRLPRPRPRPVPWPRP | 0.573
RRIRSRPPRLPRPRPRPGHVPRP | 0.1
RRIRIRPPRLPRPRPRPYCHPRP | -0.743
RRIRIRPPRLPRPRPRPAQWPRP | 0.211
RRIRTRPPRLPRPRPRPIVYPRP | -0.85
RRIRRRPPRLPRPRPRPVHRPRP | -0.0888
RRIRYRPPRLPRPRPRPHAQPRP | -0.0405

Sequence | shrunken log2 fold change
RRIRERPPRLPRPRPRPPVEPRP | 0.268
RRIRGRPPRLPRPRPRPRHCPRP | 0.764
RRIRERPPRLPRPRPRPDAGPRP | -0.0396
RRIRVRPPRLPRPRPRPPFWPRP | 0.46
RRIRVRPPRLPRPRPRPPFGPRP | 0.298
RRIRIRPPRLPRPRPRPNSFPRP | -0.391
RRIRMRPPRLPRPRPRPYLTPRP | -0.268
RRIRARPPRLPRPRPRPDVYPRP | 0.152
RRIRCRPPRLPRPRPRPHCMPRP | -0.517
RRIRGRPPRLPRPRPRPCARPRP | 0.38
RRIRKRPPRLPRPRPRPIADPRP | -0.125
RRIRPRPPRLPRPRPRPRLYPRP | 0.127
RRIRCRPPRLPRPRPRPCHPPRP | -0.348
RRIRVRPPRLPRPRPRPGMPPRP | 0.0671
RRIRPRPPRLPRPRPRPVCNPRP | -0.141
RRIRKRPPRLPRPRPRPWTLPRP | 0.00115
RRIRNRPPRLPRPRPRPPQQPRP | 0.294
RRIRVRPPRLPRPRPRPFATPRP | 0.276
RRIRERPPRLPRPRPRPNYSPRP | -0.63
RRIRYRPPRLPRPRPRPTRLPRP | 0.262
RRIRNRPPRLPRPRPRPPEQPRP | 0.112
RRIRCRPPRLPRPRPRPHMWPRP | -0.555
RRIRARPPRLPRPRPRPEPNPRP | 1.16
RRIRARPPRLPRPRPRPHEYPRP | -0.0609
RRIRFRPPRLPRPRPRPQHWPRP | 0.0645

Sequence | shrunken log2 fold change
RRIRGRPPRLPRPRPRPEGVPRP | 1.48
RRIRRRPPRLPRPRPRPVGRPRP | 0.472
RRIRMRPPRLPRPRPRPMDLPRP | -0.0207
RRIRHRPPRLPRPRPRPNKRPRP | -0.198
RRIRDRPPRLPRPRPRPWFKPRP | -0.203
RRIRHRPPRLPRPRPRPDYAPRP | -0.171
RRIRQRPPRLPRPRPRPWCRPRP | -0.325
RRIRYRPPRLPRPRPRPKCPPRP | 0.137
RRIRMRPPRLPRPRPRPYPPPRP | 0.133
RRIRWRPPRLPRPRPRPGTGPRP | 0.188
RRIRVRPPRLPRPRPRPILAPRP | -0.224
RRIRERPPRLPRPRPRPSEAPRP | 0.134
RRIRLRPPRLPRPRPRPFGGPRP | -0.334
RRIRPRPPRLPRPRPRPYYLPRP | -0.745
RRIRKRPPRLPRPRPRPHRVPRP | 0.34
RRIRWRPPRLPRPRPRPFDKPRP | -0.012
RRIRMRPPRLPRPRPRPDASPRP | 2.43
RRIRKRPPRLPRPRPRPMSLPRP | 0.474
RRIRVRPPRLPRPRPRPHCMPRP | -0.414
RRIRLRPPRLPRPRPRPHQAPRP | -0.216
RRIRIRPPRLPRPRPRPYFSPRP | -0.382
RRIRERPPRLPRPRPRPMQPPRP | -0.0115
RRIRHRPPRLPRPRPRPDPNPRP | -0.0239
RRIRQRPPRLPRPRPRPGVWPRP | 0.611
RRIRHRPPRLPRPRPRPHVDPRP | 0.0392

Sequence | shrunken log2 fold change
RRIRCRPPRLPRPRPRPGLKPRP | -0.113
RRIRHRPPRLPRPRPRPVKKPRP | 0.0327
RRIRLRPPRLPRPRPRPFYMPRP | -0.0545
RRIRGRPPRLPRPRPRPIDDPRP | 0.329
RRIRKRPPRLPRPRPRPYVFPRP | -0.0884
RRIRVRPPRLPRPRPRPLLEPRP | 0.0931
RRIRYRPPRLPRPRPRPQSPPRP | -0.0354
RRIRYRPPRLPRPRPRPAPNPRP | -0.01
RRIRMRPPRLPRPRPRPNNVPRP | -0.0591
RRIRERPPRLPRPRPRPPSTPRP | -0.136
RRIRMRPPRLPRPRPRPQWAPRP | -0.0175
RRIRPRPPRLPRPRPRPFCMPRP | -0.047
RRIRARPPRLPRPRPRPCVFPRP | 0.39
RRIRPRPPRLPRPRPRPWRKPRP | 0.0228
RRIRQRPPRLPRPRPRPYGAPRP | -0.0876
RRIRKRPPRLPRPRPRPKICPRP | 0.0599
RRIRKRPPRLPRPRPRPGDLPRP | 0.273
RRIRDRPPRLPRPRPRPRFIPRP | -0.233
RRIRTRPPRLPRPRPRPGMMPRP | -0.211
RRIRRRPPRLPRPRPRPTIVPRP | -0.111
RRIRQRPPRLPRPRPRPIAFPRP | -0.168
RRIRLRPPRLPRPRPRPTSLPRP | -0.112
RRIRYRPPRLPRPRPRPRNDPRP | -0.205
RRIRQRPPRLPRPRPRPSSDPRP | -0.609
RRIRTRPPRLPRPRPRPLCEPRP | -0.0895
